Measured values reported in patent publication US20230192819A1 (TWIST BIOSCIENCE, published 2023).
Positions count from the first letter of the chain named.

B1: Antibody 1-14 (Fc fusion)
chain: EVQLVESGGGLVQPGGSLRLSCAASGFTPDDYAMGWFRQAPGKEREFVAAINWSGVTTYHYYADSVKGRFTISADNSKNTAYLQMNSLKPEDTAVYYCASDESDAANWGQGTLVTVSS
B2: Antibody 1-6 (Fc fusion)
chain: EVQLVESGGGLVQPGGSLRLSCAASGSISSINVMGWFRQAPGKEREWMGVMAYDGSTYYADSVKGRFTISADNSKNTAYLQMNSLKPEDTAVYYCAAFDGYSGSDWGQGTLVTVSS
B3: Antibody 1-16 (Fc fusion)
chain: EVQLVESGGGLVQPGGSLRLSCAASGRTYAMGWFRQAPGKERELVAEITAGGSTYYADSVKGRFTISADNSKNTAYLQMNSLKQEDTAVYYCAVDGPFGWGQGTLVTVSS
B4: Antibody 1-17 (Fc fusion)
chain: EVQLVESGGGLVQPGGSLRLSCAASGRTIVPYTMGWFRQAPGKEREEVAAISTGGGGTYYADSVKGRFTISADNSKNTAYLQMNSLKPEDTAVYYCAVDGPFGWGQGTLVTVSS
B5: Antibody 1-20 (Fc fusion)
chain: EVQLVESGGGLVQPGGSLRLSCAASGRTFRRYTMGWFRQAPGKEREFVASITSSGVNAYADSVKGRFTISADNSKNTAYLQMNSLKPEDTAVYYCAKEDVGKPFDWGQDTLVTVSS
B6: Antibody 1-3 (Fc fusion)
chain: EVQLVESGGGLVQPGGSLRLSCAASGTTFRINVMGWFRQAPGKEREFVAGISWTGGSTIYADSVKGRFTISADNSKNTAYLQMNSLKPEDTAVYYCAAFDGYSGSDWGQGTLVTVSS
B7: Antibody 1-21 (Fc fusion)
chain: B6 chain with T27P, R30S, N32Y, V33A, F47L, T54N, I59N, S103T
B8: Antibody 1-11 (Fc fusion)
chain: B6 chain with T27F, R30D, I31D, N32Y, G50V, G56E, I59L
B9: Antibody 1-2 (Fc fusion)
chain: EVQLVESGGGLVQPGGSLRLSCAASGGSEYSYSTFSSFVMGWFRQAPGKERELVASISWSGGHTFYADSVKGRFTISADNSKNTAYLQMNSLKPEDTAVYYCAAYLRGPYYSSFYDSTKYEWGQGTLVTVSS
B10: Antibody 1-13 (Fc fusion)
chain: EVQLVESGGGLVQPGGSLRLSCAASGRTTFSSYTMGWFRQAPGKEREFVASITRSGVLNYADSVKGRFTISADNSKNTAYLQMNSLKPEDTAVYYCAKEDVGKPFDWGQGTLVTVSS

Experiments:
[1] = molecular target: T1, Acro S1 spike protein (SARS-CoV-2) (SARS-CoV-2, UniProt P0DTC2 16-685); assay: SPR (Carterra LSA)
[2] = molecular target: T2, C52Hg Brazilian variant (Acro) spike protein (SARS-CoV-2, UniProt P0DTC2 16-1213); assay: SPR (Carterra LSA)
[3] = molecular target: T3, C52Hk S. African variant (Acro) spike protein (SARS-CoV-2, UniProt P0DTC2 16-1213); assay: SPR (Carterra LSA)
[4] = molecular target: T4, S1 variant B.1.1.7: UK (Acro) spike protein (SARS-CoV-2, UniProt P0DTC2 16-1213); assay: SPR (Carterra LSA)
[5] = molecular target: T2, C52Hg Brazilian variant (Acro) spike …; assay: SPR (Carterra LSA); antibody on chip, spike protein as analyte; summary table
[6] = molecular target: T4, S1 variant B.1.1.7: UK (Acro) spike …; assay: as above
[7] = molecular target: T2, C52Hg Brazilian variant (Acro) spike …; assay: SPR (Carterra LSA); […]; 1:1 model; […]
[8] = molecular target: T4, S1 variant B.1.1.7: UK (Acro) spike …; assay: SPR (Carterra LSA); […]; 1:1 model; […]
[9] = molecular target: T1, Acro S1 spike protein (SARS-CoV-2); assay: SPR (Carterra LSA); antibody on chip, spike protein as analyte; summary table
[10] = molecular target: T1, Acro S1 spike protein (SARS-CoV-2); assay: SPR (Carterra LSA); […]; 1:1 model; […]
[11] = molecular target: T3, C52Hk S. African variant (Acro) spike …; assay: SPR (Carterra LSA); antibody on chip, spike protein as analyte; summary table
[12] = molecular target: T3, C52Hk S. African variant (Acro) spike …; assay: SPR (Carterra LSA); […]; 1:1 model; […]

Row | Binder | binding result [1] | binding result [2] | binding result [3] | binding result [4] | Kd [9] [nM] | Kd [10] [nM] | koff [10] [s⁻¹] | kon [10] [M⁻¹ s⁻¹] | also measured
1 | B1 | no binding | no binding | no binding | no binding | – | – | – | – | –
2 | B2 | no binding | no binding | no binding | no binding | – | – | – | – | –
3 | B3 | – | – | – | – | – | – | – | – | Kd [5]: 4.79 nM; Kd [6]: 1.06 nM; Kd [7]: 4.79 nM; koff [7]: 0.0034 s⁻¹; kon [7]: 710000 M⁻¹ s⁻¹; Kd [8]: 1.06 nM; koff [8]: 0.00037 s⁻¹; kon [8]: 350000 M⁻¹ s⁻¹
4 | B4 | – | – | – | – | 5.15 | 5.15 | 0.0017 | 330000 | –
5 | B5 | no binding | no binding | no binding | no binding | – | – | – | – | –
6 | B6 | no binding | no binding | no binding | no binding | – | – | – | – | –
7 | B7 | no binding | no binding | no binding | no binding | – | – | – | – | –
8 | B8 | – | – | – | – | – | – | – | – | Kd [5]: 4.67 nM; Kd [11]: 5 nM; Kd [7]: 4.67 nM; koff [7]: 0.0014 s⁻¹; kon [7]: 300000 M⁻¹ s⁻¹; Kd [12]: 5 nM; koff [12]: 0.0019 s⁻¹; kon [12]: 380000 M⁻¹ s⁻¹
9 | B9 | – | – | – | – | 2.41 | 2.41 | 0.00053 | 220000 | –
10 | B10 | – | – | – | – | 18.2 | 18.2 | 0.0031 | 170000 | Kd [6]: 5.18 nM; Kd [8]: 5.18 nM; koff [8]: 0.00088 s⁻¹; kon [8]: 170000 M⁻¹ s⁻¹
